Drawing on patent US20140100120, “METHODS OF X-APTAMER GENERATION AND COMPOSITIONS […]” (AM Biotechnologies, LLC, published 2014), this text covers Kd for 16 molecules.

As a reminder, the Kd is the concentration at which binding is half-saturated.

The chains are these.
B1: Motif 2 thio NH2 (ssDNA)
DNA: CTGTTAGGGAACCAAGACGA
modifications: fully monothioate PS; X=amino-dU [n positions 2,4 = modified dU]
B2: Motif 2 phospho ADDA (ssDNA)
DNA: CTGTTAGGGAACCAAGACGA
modifications: X=ADDA-dU; phosphodiester [n positions 2,4 = modified dU]
B3: Motif 2 phospho NH2 (ssDNA)
DNA: CTGTTAGGGAACCAAGACGA
modifications: X=amino-dU; phosphodiester [n positions 2,4 = modified dU]
B4: Motif 2 thio ADDA (ssDNA)
DNA: CTGTTAGGGAACCAAGACGA
modifications: fully monothioate PS; X=ADDA-dU [n positions 2,4 = modified dU]
B5: Motif 3 thio NH2 (ssDNA)
DNA: GCCTGCAAGACGTCCATAGACAC
modifications: fully monothioate PS; X=amino-dU [n positions 13 = modified dU]
B6: Motif 5 phospho ADDA (ssDNA)
DNA: AGATACAGTAAACGTCCATAGACAC
modifications: X=ADDA-dU; phosphodiester [n positions 4,15 = modified dU]
B7: Motif 4 thio ADDA (ssDNA)
DNA: GATCTGCAATGTAACCATAGACA
modifications: fully monothioate PS; X=ADDA-dU [n positions 10 = modified dU]
B8: Motif 5 thio ADDA (ssDNA)
DNA: AGATACAGTAAACGTCCATAGACAC
modifications: fully monothioate PS; X=ADDA-dU [n positions 4,15 = modified dU]
B9: Motif 5 phospho NH2 (ssDNA)
DNA: AGATACAGTAAACGTCCATAGACAC
modifications: X=amino-dU; phosphodiester [n positions 4,15 = modified dU]
B10: Motif 3 phospho NH2 (ssDNA)
DNA: GCCTGCAAGACGTCCATAGACAC
modifications: X=amino-dU; phosphodiester [n positions 13 = modified dU]
B11: Motif 4 phospho ADDA (ssDNA)
DNA: GATCTGCAATGTAACCATAGACA
modifications: X=ADDA-dU; phosphodiester [n positions 10 = modified dU]
B12: Motif 4 thio NH2 (ssDNA)
DNA: GATCTGCAATGTAACCATAGACA
modifications: fully monothioate PS; X=amino-dU [n positions 10 = modified dU]
B13: Motif 5 thio NH2 (ssDNA)
DNA: AGATACAGTAAACGTCCATAGACAC
modifications: fully monothioate PS; X=amino-dU [n positions 4,15 = modified dU]
B14: Motif 3 phospho ADDA (ssDNA)
DNA: GCCTGCAAGACGTCCATAGACAC
modifications: X=ADDA-dU; phosphodiester [n positions 13 = modified dU]
B15: Motif 3 thio ADDA (ssDNA)
DNA: GCCTGCAAGACGTCCATAGACAC
modifications: fully monothioate PS; X=ADDA-dU [n positions 13 = modified dU]
B16: Motif 4 phospho NH2 (ssDNA)
DNA: GATCTGCAATGTAACCATAGACA
modifications: X=amino-dU; phosphodiester [n positions 10 = modified dU]

Chain of CD44 hyaluronic acid binding domain (CD44-HABD) (P16070 20-178, one chain of several): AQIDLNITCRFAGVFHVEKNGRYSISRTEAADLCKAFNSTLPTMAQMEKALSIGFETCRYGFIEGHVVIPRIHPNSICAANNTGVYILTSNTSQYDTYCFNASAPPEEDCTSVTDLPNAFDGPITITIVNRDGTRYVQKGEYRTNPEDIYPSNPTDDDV

The target in one data set is CD44 hyaluronic acid binding domain (CD44-HABD) (UniProt P16070 P16070:20-178). The experiment in a line: filter; 20 mM Tris pH 8.0, 150 mM NaCl, RT. To be noted: label: biotin; hairpin (predicted). As to the method:
The equilibrium binding constants of selected XAs for CD44-HABD were determined by a filter binding assay. The biotinylated XAs (1 nM) were incubated with varying concentrations of CD44-HABD in 50 μL of 20 mM Tris, pH 8.0, 150 mM NaCl for 40 min at room temperature and then transferred to a 96-well dot-blot apparatus and filtered under vacuum onto nitrocellulose membranes, which retain the CD44-HABD along with any bound XAs. The amount of biotinylated XA retained at each spot was determined by chemiluminescent detection using the Chemiluminescent Nucleic Acid Detection Module (Thermo Scientific) following the manufacturer's instructions. The chemiluminescent signals were collected on a Chemimager (Alpha Innotech). Image analysis and quantification of spot intensities were performed using ImageJ (version 1.42q). Binding analysis was based on the spot intensities on the nitrocellulose membranes with subtraction of background spot intensity due to the buffer effect from all the data points. Saturation binding curves were generated by using GraphPad Prism with curve fits assuming a single binding site. The NH₂ XA column lists KDs for XAs where X=amino-dU. The ADDA XA column lists KDs for XAs where X=ADDA-dU.
The equilibrium binding constants of the small constructs were determined by the filter binding assay. The derived equilibrium binding constants of the above small XA constructs are shown below in Table 4.
Take B1: the Kd is 48 nM.

For B2, the Kd was 2 nM.

Regarding B3, the Kd was 43.1 nM.

With B4, the Kd was 15.5 nM.

The data set is the same for the next values; noted with them: label: biotin; stem-loop (predicted).
With B5, the Kd was 81.2 nM.

In the case of B6, the Kd is 3.9 nM.

With B7, the Kd was 13.6 nM.

For the molecule B8, the Kd is 10.1 nM.

Consider B9, for which the Kd was 13.8 nM.

On to B10, for which the Kd was 27.6 nM.

In the case of B11, the Kd was 2.1 nM.

On to B12, for which the Kd was 35.4 nM.

Consider B13, for which the Kd is 18 nM.

Turning to B14, the Kd was 19.5 nM.

On to B15, for which the Kd is 64.8 nM.

For B16, the Kd was 6.8 nM.
